Results taken from paper PMC8904574, “Bacterial F-type ATP synthases follow a well-choreographed assembly pathway” (Nature Communications, 2022).
Each block holds one binder with its values, some of them ahead of it.

B1: α-subunit of the F1 part of the Na+-F1FO-ATP synthase of Acetobacterium woodii, N-terminal StrepI tag (natural protein, UniProt P50000 1-502, looked up)
chain: MNLRPEEISQIIKNEIERYEDKLEVVDVGTVIQVGDGVARVHGLENAMAGELLAFPNEVYGMVLNLEEDNVGCVLLGYDDDIVEGDIVRCTGRIVEVPVGEAMIGRVVNALGFPVDGKGPIVTDHRRPVEVKAAGVIERESVNQPIQTGYKAIDSMIPIGRGQRELIIGDRQTGKTALAIDTIINQKGEDVICIYVAIGQKDSTVAQIVGQLEENNAMDYTIIVSAGAAQLAPLQYIAPYSGVTMAEYFMNEQQKDVLIIYDDLSKHAVAYRAMSLILRRPPGREAYPGDVFYLHSRLLERAAKLKAGGSITALPIIETQAGDVSAYIPTNVISITDGQIFLEAELFRSGIRPAVNPGISVSRVGGSAQIKSMKKVAGPLRIEYAQYRELASFAQFGSDLDDETKAQLAKGERIVEILKQDQYDPMNVEDQVLILYAATNGFLLDIEVKDIREFEKGLIKFAQKKYPEIMTKVKGKDGLSDEVVAAFAECIEAYKKVFSKSV
notes: ATP synthase subunit alpha (gene atpA) of the Na+-F1FO-ATP synthase, Acetobacterium woodii; also called α[WT]; StrepI-α; source: E. coli BL21gold(DE3), purified (Strep-Tactin, SEC); not shown: StrepI, N-terminal, kept
B3: central stalk γε complex of the A. woodii F1 ATP synthase (atpG and atpC expressed bicistronically, His6 tag on ε) (complex, Acetobacterium woodii)
chain 1: MAENVQDIKRRIKSVNSTMQITHAMELVASAKLRKSRELAEGRRPYFEAMIESIGRIVEKSGNARNIFMDQREVKKTAYIIITGDKGLAGGYNVNVAKLVEEHITDKENAVLFTVGSRGRDHFRNREYHIQGEYLGISERPNFFNAKEVTAIVMEGFKNGEYDEVYIAYTKFVSTITQHAQMMKLLPLSAEELITSGKVKTTEETKEEKSKMSDRELTIMTYEPEPEELLKYLIPNFVSSTVYGSMIESAASEQGARRTAMESATTNANEMIDGLTLQYNRVRQAAITQEISEIVGGAEALN
chain 2: MAETFRLKIIAPTGVFFDDDIERVVIRGIEGELAILAEHTPLTTNVAIGTFNIIFADKKKKNGTLLGGIATINPRETIILTDAAEWPEEIDIKRAQEAKERALKRIHDDKFDTARARAALERAIARINSKENV
notes: ATP synthase subunit gamma (gene atpG) of the Na+-F1FO-ATP synthase, Acetobacterium woodii; ATP synthase subunit epsilon (gene atpC) of the Na+-F1FO-ATP synthase, Acetobacterium woodii; source: E. coli BL21gold(DE3), co-expressed, purified (Ni-NTA, SEC); copies: 1 + 1
B4: in vitro assembled αβ heterodimer (StrepI-α with His6-β, in ATP/Mg2+ or other nucleotide/Mg2+) (complex, Acetobacterium woodii)
chain 1: MNLRPEEISQIIKNEIERYEDKLEVVDVGTVIQVGDGVARVHGLENAMAGELLAFPNEVYGMVLNLEEDNVGCVLLGYDDDIVEGDIVRCTGRIVEVPVGEAMIGRVVNALGFPVDGKGPIVTDHRRPVEVKAAGVIERESVNQPIQTGYKAIDSMIPIGRGQRELIIGDRQTGKTALAIDTIINQKGEDVICIYVAIGQKDSTVAQIVGQLEENNAMDYTIIVSAGAAQLAPLQYIAPYSGVTMAEYFMNEQQKDVLIIYDDLSKHAVAYRAMSLILRRPPGREAYPGDVFYLHSRLLERAAKLKAGGSITALPIIETQAGDVSAYIPTNVISITDGQIFLEAELFRSGIRPAVNPGISVSRVGGSAQIKSMKKVAGPLRIEYAQYRELASFAQFGSDLDDETKAQLAKGERIVEILKQDQYDPMNVEDQVLILYAATNGFLLDIEVKDIREFEKGLIKFAQKKYPEIMTKVKGKDGLSDEVVAAFAECIEAYKKVFSKSV
chain 2: MAQNIGKVVQVIGPVVDVKFQKDKLPKLNNAVNIELNGHTLVIEVAQQLGDDIVRCIAMDSTDGLMRNQEAVDTGSAIQVPVGKATLGRMFNVLGEPIDGKPFDTKDVVMHPIHRHPPSFEEQQTQPEMFETGIKVVDLICPYVRGGKIGLFGGAGVGKTVLIQELINNIATQHGGLSVFAGVGERTREGNDLYYEMMESGVINKTALCFGQMNEPPGARMRIALAGLTMAEYFRDDEGQDVLLFIDNIFRFTQAGSEVSALLGRMPSAVGYQPTLATEMGALQERITSTSKGSITSVQAVYVPADDLTDPAPATTFAHLDATTVLSRAITEKGIYPAVDPLDSTSRILDPKIVGQEHYETAREVQEILQRYKELQDIIAILGMDELSDADKITVSRARKVERFLSQPFNVAEQFTGTAGVYVTIGDTIKGFKEILEGQHDDLPESAFLLVGTIEDAVVKAKKIKG
notes: ATP synthase subunit alpha (gene atpA), Acetobacterium woodii; as m1; ATP synthase subunit beta (gene atpD), Acetobacterium woodii; as m2; also called in vitro αβ; source: assembled in vitro from subunits purified from E. coli BL21gold(DE3); not shown: StrepI, N-terminal, kept; His6, N-terminal, kept; copies: 1 + 1

Columns and labels:
Conditions in all cases: both partners purified
[1] = molecular target: B3; assay: native MS; LILBID-MS; purified subunits incubated in 50 mM KPi, 200 mM NaCl, 2 mM ATP, 2 mM MgCl2, 10% glycerol, pH 7.4, 4 °C, 1 h; exchanged into 100 mM ammonium acetate, 2 mM ATP, 2 mM MgCl2, pH 7.4
[2] = molecular target: T1, α-subunit mutant α[R363K], A. woodii (Acetobacterium woodii, UniProt P50000 1-502, R363K); assay: SEC; HPLC on a bioZen 1.8 µm SEC-3 column, 60 µg protein, elution buffer B (50 mM KPi, 200 mM NaCl, 2 mM ATP, 2 mM MgCl2, pH 7.4), 4 °C
T1 construct: ATP synthase subunit alpha (gene atpA), Acetobacterium woodii, point mutant; source: E. coli BL21gold(DE3), purified (Strep-Tactin, SEC)

[3] = molecular target: T2, α-subunit mutant α[R363Q], A. woodii (Acetobacterium woodii, UniProt P50000 1-502, R363Q); assay: as above
T2 construct: ATP synthase subunit alpha (gene atpA), Acetobacterium woodii, point mutant; source: E. coli BL21gold(DE3), purified (Strep-Tactin, SEC)

[4] = molecular target: B1; assay: native MS; LILBID-MS; purified subunits incubated in 50 mM KPi, 200 mM NaCl, 2 mM ATP, 2 mM MgCl2, 10% glycerol, pH 7.4, 4 °C, 1 h; exchanged into 100 mM ammonium acetate, 2 mM ATP, 2 mM MgCl2, pH 7.4
[5] = molecular target: T3, α[R363Q]β[WT] heterodimer assembled in vitro in ATP/Mg2+ (Acetobacterium woodii, UniProt P50000 1-502; P50002 1-466, R363Q); assay: as above
T3 construct: ATP synthase subunit alpha (gene atpA), Acetobacterium woodii; as m9; ATP synthase subunit beta (gene atpD), Acetobacterium woodii; as m2; source: assembled in vitro from subunits purified from E. coli BL21gold(DE3); not shown: His6, N-terminal, kept; copies: 1 + 1

[6] = molecular target: B4; assay: as above

Binder: B1
stoichiometry N [1]: ≤ 1

binding result [2]: binds | binding result [3]: binds | binding result [4]: binds | stoichiometry N [1]: ≤ 1
B2: β-subunit of the F1 part of the Na+-F1FO-ATP synthase of Acetobacterium woodii, N-terminal His6 tag (natural protein, UniProt P50002 1-466, looked up)
chain: MAQNIGKVVQVIGPVVDVKFQKDKLPKLNNAVNIELNGHTLVIEVAQQLGDDIVRCIAMDSTDGLMRNQEAVDTGSAIQVPVGKATLGRMFNVLGEPIDGKPFDTKDVVMHPIHRHPPSFEEQQTQPEMFETGIKVVDLICPYVRGGKIGLFGGAGVGKTVLIQELINNIATQHGGLSVFAGVGERTREGNDLYYEMMESGVINKTALCFGQMNEPPGARMRIALAGLTMAEYFRDDEGQDVLLFIDNIFRFTQAGSEVSALLGRMPSAVGYQPTLATEMGALQERITSTSKGSITSVQAVYVPADDLTDPAPATTFAHLDATTVLSRAITEKGIYPAVDPLDSTSRILDPKIVGQEHYETAREVQEILQRYKELQDIIAILGMDELSDADKITVSRARKVERFLSQPFNVAEQFTGTAGVYVTIGDTIKGFKEILEGQHDDLPESAFLLVGTIEDAVVKAKKIKG
notes: ATP synthase subunit beta (gene atpD) of the Na+-F1FO-ATP synthase, Acetobacterium woodii; also called β[WT]; His6-β; source: E. coli BL21gold(DE3), purified (Ni-NTA, SEC); also co-expressed with other F1 subunits in E. coli as the tagged subunit of the in cellula complexes; not shown: His6, N-terminal, kept

Binder: B3
binding result [5]: binds | binding result [6]: binds

Binder: B4
stoichiometry N [1]: 3
